Laboratory results taken from article PMC10954734, “Structure of antiviral drug bulevirtide bound to hepatitis B and D virus receptor protein NTCP” (Nature Communications, 2024).

Biological target: human Na+-taurocholate co-transporting polypeptide (NTCP), detergent-solubilized, 3C-cleaved (human) (UniProt Q14973)
Sequence (Q14973 whole entry): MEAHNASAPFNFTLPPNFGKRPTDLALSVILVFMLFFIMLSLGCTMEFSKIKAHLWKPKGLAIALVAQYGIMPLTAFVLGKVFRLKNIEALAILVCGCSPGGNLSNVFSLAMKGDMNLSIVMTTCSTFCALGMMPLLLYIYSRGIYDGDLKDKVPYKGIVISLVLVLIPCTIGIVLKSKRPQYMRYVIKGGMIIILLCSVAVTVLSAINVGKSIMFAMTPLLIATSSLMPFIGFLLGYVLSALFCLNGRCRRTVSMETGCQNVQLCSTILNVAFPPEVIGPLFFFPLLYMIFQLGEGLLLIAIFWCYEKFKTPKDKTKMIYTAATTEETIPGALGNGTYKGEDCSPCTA

Substance: bulevirtide (BLV) (peptide)
- inhibition of 3H-taurocholate transport (1 uM TC, 8 min) into Flp-In T-Rex cells stably expressing NTCP at increasing concentrations of BLV; at high concentrations BLV fully abolished transport: 195 nM
